The record followed here is paper PMC6880876.

For this assay, the target named is end-binding protein 3 (EB3), full-length, recombinant (UniProt Q9UPY8). Put plainly: ELISA.
UniProt Q9UPY8, sequence (Q9UPY8 whole entry): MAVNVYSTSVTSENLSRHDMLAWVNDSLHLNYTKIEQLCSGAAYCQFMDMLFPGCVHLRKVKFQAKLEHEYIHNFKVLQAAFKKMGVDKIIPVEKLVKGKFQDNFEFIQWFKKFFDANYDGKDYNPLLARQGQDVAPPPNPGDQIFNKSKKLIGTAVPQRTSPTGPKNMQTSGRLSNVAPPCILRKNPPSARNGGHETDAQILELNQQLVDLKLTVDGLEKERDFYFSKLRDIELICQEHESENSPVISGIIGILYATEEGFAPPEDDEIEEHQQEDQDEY

Regarding “full-length WT tau (0N4R) (from UniProt P10636-6 1-383) (natural protein)”, the Kd stood at 22 nM.
